Laboratory results published in patent publication US20240018268A1 (JUNO THERAPEUTICS, published 2024).

Columns and labels:
[1] = target: T1, anti-CD19 (FMC63-derived) chimeric antigen receptor (CAR), expressed on T cells; experiment: flow cytometry, CAR T cells spiked into human PBMCs
T1 construct: Whole CAR on the surface of transduced human T cells/PBMCs, co-expressed with EGFRt from the same construct (T2A); treated here as one molecule; also called anti-CD19 (FMC63) CAR; FMC63-derived CAR
Procedure: The anti-CD19 CAR expressing cells were spiked in to a sample of cells containing healthy human peripheral blood mononuclear cells (PBMCs). The resulting cell compositions were incubated with different concentrations of the anti-CD19 FMC63 scFv-specific anti-ID B1 or anti-ID B2 antibodies. As a control, samples of each condition were also incubated with a concentration of anti-EGFR antibody, capable of detecting the EGFRt surrogate marker on the transduced cells. Control samples included those only containing the PBMCs without the addition of added CAR− expressing T cells. Geometric mean fluorescence intensity (MFI) was quantified in positively labeled cells to assess antibody staining.

[2] = target: T2, anti-CD19 (SJ25C1-derived) chimeric antigen receptor (CAR), expressed on T cells or Jurkat cells (human, UniProt P10747 153-179; P10747 180-220; P20963 52-163, limits assumed); experiment: flow cytometry, biotin-conjugated antibody and PE-streptavidin on CAR-transduced cells
T2 construct: domain: transmembrane domain;domain: intracellular signaling domain;domain: signaling domain; Whole CAR on the surface of transduced human T cells, PBMCs or Jurkat cells; also called anti-CD19 (SJ25C1) CAR; SJ25C1-derived CAR
Procedure: Hybridoma fusion clones were generated and 12 candidate clones were further characterized by flow cytometry. Peripheral blood mononuclear cells were isolated from human subjects and cells were activated and transduced with a viral vector encoding the anti-CD19 CAR. For flow cytometry, about 1×10⁶ cells per 100 μL were incubated with 10 μL of biotin-conjugated anti-idiotype antibody followed by staining with a PE-conjugated streptavidin. As a positive control for surface expression of the CAR, cells were stained with an anti-EGFR antibody to verify expression of the EGFRt transduction marker, which was a surrogate of CAR expression. […] Cells were gated on CD3⁺ CD4⁺/CD8⁺ PBMCs and fluorescence signal was determined. […] To confirm the antibodies were specific for the scFv derived from the anti-CD19 antibody derived from FMC63, similar experiments were performed on cells transduced with an anti-CD19 CAR derived from SJ25C1 as described in Example 1. […] Anti-idiotype antibody clones B-1 (anti-ID B-1) and B-2 (anti-ID B-2) were selected for further characterization.

[3] = target: T3, human Fc-fusion protein containing the FMC63-derived scFv portion of the CAR (biotinylated ECD fusion protein … (biotinylated (capture form))); sulfo-tagged (detection form)); experiment: bridge assay, biotinylated scFv-Fc on streptavidin plate, sulfo-tagged scFv-Fc detection, ECL (MSD)
T3 construct: also called FMC63-derived Fc-scFv fusion; not shown: human Fc
Source text: A bridge anti-therapeutic antibody (ATA) assay was developed to detect the presence or absence of antibodies, in serum of treated subjects, recognizing administered anti-CD19 CARs. Certain anti-ID antibodies described in Examples 1-3 were used as positive controls and to validate the ability of the assay to detect the presence of such antibodies.
A biotinylated human Fc-fusion protein (biotinylated ECD fusion protein) was used, containing an scFv portion of the CAR with variable regions derived from FMC63 (set forth in SEQ ID NO:34). The biotinylated ECD fusion protein was added to streptavidin-coated wells; the plates were incubated under conditions to allow binding of the fusion protein, and washed. To the biotinylated fusion protein-coated wells, various concentrations of anti-ID B-1 or anti-ID B-2 were added to the wells, and allowed to incubate under conditions to allow specific binding of the antibody. After washing, a sulfo-tagged version of the ECD fusion protein (sulfo-ECD fusion protein) containing the FMC63-derived Fc-scFv fusion. The wells were washed and an electrochemiluminescence (ECL) signal was read on a Meso Scale Discovery (MSD) Sector Imager.

[4] = target: recombinant soluble extracellular domain (ECD) portion of the anti-CD19 (SJ25C1-derived) CAR (human); experiment: ELISA on the recombinant soluble ECD portion; A-1 is the one named clone of the five
[5] = target: T1, anti-CD19 (FMC63-derived) chimeric …; experiment: inferred from a T cell proliferation assay with plate-bound antibody
Procedure: For proliferation studies, engineered T cells were labeled with 50 nM carboxyfluorescein succinimidyl ester (CFSE) or CELL TRACE VIOLET (CTV) dye. Where relevant, expression of the surrogate EGFRt marker was detected by staining with an anti-EGFR antibody. Cells were seeded at a fixed number of cells per well in wells previously coated with 10, 5, 2.5, or 1.25 μg/ml of OKT3 (anti-CD3 antibody), or of anti-idiotype antibodies recognizing SJ25C1 and FMC63 (anti-ID A-land anti-ID B-1, respectively) in sodium carbonate/bicarbonate buffer (pH 9.0) overnight. Cells seeded in wells with no antibody coating were included as negative controls. The cells were cultured for 4 days and assessed for viability, proliferation, and expression of CD69 and CD25.
Proliferation of anti-CD19 (SJ25C1 or FMC63) CAR− expressing T cells was assessed by dye dilution using flow cytometry. The percent of CD3⁺/CFSE® w cells observed following stimulation of anti-CD19 (SJ25C1) CAR− expressing T cells with anti-ID A-1 is shown in FIG. 2A. The percent of CD3⁺/EGFR+/CFSE® W cells observed following stimulation of anti-CD19 (FMC63) CAR− expressing T cells with anti-ID B-1 is shown in FIG. 2B. […]

T2 sequence (P10747 other isoform, or with tags, fused parts or gaps mutant limits assumed): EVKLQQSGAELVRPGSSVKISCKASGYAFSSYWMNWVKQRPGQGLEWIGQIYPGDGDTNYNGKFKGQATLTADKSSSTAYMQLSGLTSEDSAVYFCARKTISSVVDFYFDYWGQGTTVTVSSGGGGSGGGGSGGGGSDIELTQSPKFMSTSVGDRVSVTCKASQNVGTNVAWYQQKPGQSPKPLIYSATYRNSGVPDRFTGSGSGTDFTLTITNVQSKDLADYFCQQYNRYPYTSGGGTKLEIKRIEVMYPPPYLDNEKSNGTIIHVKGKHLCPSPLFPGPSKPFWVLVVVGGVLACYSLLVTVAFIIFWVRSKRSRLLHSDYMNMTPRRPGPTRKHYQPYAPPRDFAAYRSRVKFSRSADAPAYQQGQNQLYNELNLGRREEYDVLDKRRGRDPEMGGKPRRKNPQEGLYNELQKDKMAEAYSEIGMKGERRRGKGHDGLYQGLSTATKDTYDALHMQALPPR
recombinant soluble extracellular domain (ECD) portion of the anti-CD19 (SJ25C1-derived) CAR (human), sequence (chain, as listed by the source): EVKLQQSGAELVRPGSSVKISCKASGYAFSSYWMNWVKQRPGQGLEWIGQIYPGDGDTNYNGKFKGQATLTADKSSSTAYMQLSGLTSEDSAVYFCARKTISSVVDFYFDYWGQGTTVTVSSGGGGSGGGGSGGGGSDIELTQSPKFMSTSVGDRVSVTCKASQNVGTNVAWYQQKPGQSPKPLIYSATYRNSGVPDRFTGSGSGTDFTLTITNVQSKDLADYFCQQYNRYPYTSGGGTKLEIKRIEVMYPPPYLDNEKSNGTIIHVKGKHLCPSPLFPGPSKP

binding result [1]	binding result [2]	binding result [3]	binding result [4]	binding result [5]	Binder
binds	no binding	binds			anti-idiotype antibody clone B-2 (anti-ID B-2) (antibody, mouse IgG1, kappa, V domains shown, Mouse hybridoma antibody) VH: QVQLQQPGAELVRPGASVKLSCKTSGYSFTRYWMNWVKQRPGQGLEWIGMIHPSDSETRLNQKFKDKATLTVDNSSSTAYMQLSSPTSEDSAVYYCASIYYEEAWGQGTLVTVSA VL: DIQMTQSPASLSASVGETVTITCRASGNIHNYLAWYQQKQGKSPQLLVYNAKTLADSVPSRFSGSGSGTQYSLKINSLQPEDFGSYYCQHFWSTPYTFGGGTKLEIKR
			binds		anti-idiotype antibody clone A-1 (anti-ID A-1) (antibody, mouse IgG1, kappa, V domains shown, Mouse hybridoma antibody; also called SJ25C1-derived scFv-specific anti-idiotype antibody; SJ25C1-specific anti-idiotype antibody) VH: QVQLQQPGSELVRPGGSVKLSCKASDYTFTSYWMHWVRQRPGQGLEWIGNIYPGSGGTNYDEKFKRKATLTVDTSSSTAYMQLRSLTSEDSAVYYCTREVTTVAYYYSMDYWGQGTSVTVSS VL: DIQMTQTTSSLSASLGDRVTISCRASQDISNYLNWYQQKPDGTVKLLIYYTSRLHSGVPSRFSGSGSGTDYSLTISNLEQEDIATYFCQQGKTVPFTFGSGTKLEIKR
	no binding	binds		binds	anti-idiotype antibody clone B-1 (anti-ID B-1) (antibody, mouse IgG2a, kappa, V domains shown, Mouse hybridoma antibody; also called FMC63-derived scFv-specific anti-idiotype antibody) VH: EVQLQQSGPELVKPGASVKMSCKASGYTFTDYYMKWVKQCHGKSLEWIGDINPNNGGTDYNQNFKGKATLTVDKSSSTAYMQLNSLTSEDSAVYYCAREGNNYGSRDAMDYWGQGTSVTVSS VL: QIVLTQSPALMSASPGEKVTMTCSASSGVIYMYWYQQKPRSSPKPWIYLTSNLASGVPARFSGSGSGTSYSLTISSMEAEDAATYYCQQWSSNPLTFGAGTKLELKR
